Measurements taken from US20120034163A1, “NON-INVASIVE TOOLS FOR DETECTING VULNERABLE ATHEROSCLEROTIC PLAQUES” (UNIVERSITE JOSEPH FOURIER, priority 2009, published 2012).
Where no end group is shown, it is not given here.

What was measured:
VCAM-1 = target: T1, VCAM-1 (Homo sapiens, UniProt P19320); conditions: Ling et al. (2000); cited from earlier work
T1 sequence (P19320 25-739): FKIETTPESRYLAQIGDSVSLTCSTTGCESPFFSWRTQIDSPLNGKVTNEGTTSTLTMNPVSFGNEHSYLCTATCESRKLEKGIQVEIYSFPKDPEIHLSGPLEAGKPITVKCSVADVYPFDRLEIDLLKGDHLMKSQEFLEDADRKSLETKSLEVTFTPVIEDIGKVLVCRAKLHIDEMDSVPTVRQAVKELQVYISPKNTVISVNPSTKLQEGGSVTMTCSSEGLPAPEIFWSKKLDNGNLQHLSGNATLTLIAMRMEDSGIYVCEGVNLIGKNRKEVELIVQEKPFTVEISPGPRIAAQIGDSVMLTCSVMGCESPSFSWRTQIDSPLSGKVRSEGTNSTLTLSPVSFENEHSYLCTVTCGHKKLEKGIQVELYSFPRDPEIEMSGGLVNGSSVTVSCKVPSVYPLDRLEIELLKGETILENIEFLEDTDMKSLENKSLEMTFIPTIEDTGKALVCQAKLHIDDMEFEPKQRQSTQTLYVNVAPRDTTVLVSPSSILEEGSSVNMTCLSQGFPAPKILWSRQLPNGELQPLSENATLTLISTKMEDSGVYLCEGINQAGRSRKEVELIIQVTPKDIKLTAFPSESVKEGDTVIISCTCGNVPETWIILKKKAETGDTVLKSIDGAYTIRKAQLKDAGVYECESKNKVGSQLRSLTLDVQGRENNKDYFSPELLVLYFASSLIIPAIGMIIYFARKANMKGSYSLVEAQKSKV

[1] = Organ biodistribution of 99mTc-labelled tracers by gamma-well counting of excised organs; conditions: 3 hours after injection
Method: An experimental model of ApoE^−/− mice with left carotid artery ligation was used.
Left carotid artery ligation was performed under anesthesia and the animals were returned to their cages. Three weeks later, the animals were re-anesthetized and the radiotracers were injected in a lateral tail vein. Planar imaging was performed for 3 hours before the animals were euthanized. The major organs were excised, weighed and gamma-well counted for the determination of the tracers' biodistribution.

[2] = target: T2, VCAM-1 expression in atherosclerotic lesions (Mus musculus, UniProt P29533); test: In vivo pinhole SPECT imaging; design: species or system ApoE−/− mice
T2 construct: The inventors observed a positive VCAM-1 staining in the atherosclerotic lesion as compared with a contralateral vessel; from tissue; host or cells: ligated left carotid artery (atherosclerotic lesion) of living ApoE-/- mice
T2 sequence (P29533 25-739): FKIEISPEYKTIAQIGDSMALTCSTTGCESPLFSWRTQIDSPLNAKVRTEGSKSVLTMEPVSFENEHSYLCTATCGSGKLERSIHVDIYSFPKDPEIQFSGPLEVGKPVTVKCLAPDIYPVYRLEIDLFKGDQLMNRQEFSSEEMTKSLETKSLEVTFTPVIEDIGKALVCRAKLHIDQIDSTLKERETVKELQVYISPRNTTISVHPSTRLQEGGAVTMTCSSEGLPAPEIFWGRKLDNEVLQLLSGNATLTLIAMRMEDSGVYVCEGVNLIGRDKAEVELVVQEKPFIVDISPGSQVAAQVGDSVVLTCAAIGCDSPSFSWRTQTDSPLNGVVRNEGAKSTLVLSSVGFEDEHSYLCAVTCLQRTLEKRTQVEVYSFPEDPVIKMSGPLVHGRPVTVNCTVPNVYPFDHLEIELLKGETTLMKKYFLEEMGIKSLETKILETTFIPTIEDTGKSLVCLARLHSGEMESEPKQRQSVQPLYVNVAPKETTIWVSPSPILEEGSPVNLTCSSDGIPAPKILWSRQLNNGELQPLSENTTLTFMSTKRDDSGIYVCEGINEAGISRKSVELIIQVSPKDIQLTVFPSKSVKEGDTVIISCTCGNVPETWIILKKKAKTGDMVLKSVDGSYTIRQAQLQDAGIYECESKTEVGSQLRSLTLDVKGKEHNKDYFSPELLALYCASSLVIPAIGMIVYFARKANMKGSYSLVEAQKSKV
Method: In vivo pinhole SPECT imaging was performed using a small-animal dedicated gamma-camera equipped with a pinhole collimator for high-resolution imaging.

[3] = target: T3, VCAM-1 expression in the atherosclerotic lesion (Mus musculus, UniProt P29533); test: Carotid activity ratios from gamma-well counting of excised vessels and blood; format: in vivo, ApoE−/− mice; conditions: for Left-to-right carotid artery activity ratio compared with EP43: FIG. 4; for Left carotid-to-blood activity ratio compared with EP43: FIG. 5
T3 construct: The inventors observed a positive VCAM-1 staining in the atherosclerotic lesion as compared with a contralateral vessel; from tissue; host or cells: ligated left carotid artery (atherosclerotic lesion) of living ApoE-/- mice
T3 sequence (P29533 25-739): T2 sequence (P29533 25-739)
Description: The inventors also analyzed the left-to-right carotid activity ratios (FIG. 1) and left carotid-to-blood activity ratios (FIG. 2). These ratios were obtained from gamma-well counting of excised vessels and blood.

[4] = target: T3, VCAM-1 expression in the atherosclerotic lesion; test: In vivo whole-body planar imaging; design: species or system ApoE−/− mice; conditions: for Non invasive imaging of tracer uptake in the carotid atherosclerotic lesion: whole-body planar images, similar dose of tracer, FIG. 6; for Left-to-right carotid activity ratio from quantified planar images compared to EP43: FIG. 8, FIG. 9
Method: In vivo planar imaging was performed using a small-animal dedicated gamma-camera equipped with a parallel-hole collimator.

[5] = high resolution pinhole SPECT, FIG. 10

Sequence	Left-to-right carotid artery activity ratio compared with EP43 [3]	Left carotid-to-blood activity ratio compared with EP43 [3]	Left-to-right carotid activity ratio from quantified planar images compared to EP43 [4]	Binding to VCAM-1 (VCAM-1)	Non invasive imaging of tracer uptake in the carotid atherosclerotic lesion [4]	further results
YRLAIRLNER RENLRIALRY (YRLAIRLNERRENLRIALRY; B2702-rp)				bind specifically		
HGRANLRILARY (not fully specified; also: 99mTc label) [EP43]					allowed the detection of VCAM-1 expression in the atherosclerotic lesion	Left carotid activity, compared among tracers [1]: highest left carotid activity; Tracer activity in the atherosclerotic lesion versus contralateral, control carotid [1]: significantly higher; Tracer activity in the atherosclerotic lesion versus contralateral vessel, image quantification ([2]; all animals, FIG. 11): significantly higher mean tracer activity; In vivo SPECT imaging of VCAM-1 expression in atherosclerotic lesions ([2]; conclusion): allowed in vivo SPECT imaging of VCAM-1 expression in atherosclerotic lesions; Tracer activity in the right carotid area [2, 5]: no significant tracer activity could be detected; Tracer uptake at the atherosclerotic lesion (left carotid) [2, 5]: uptake at the level of the atherosclerotic lesion; Left-to-right carotid activity ratio versus B2702-p ([3]; gamma-well counting, FIG. 1): significantly higher; Left carotid-to-blood activity ratio versus B2702-p ([3]; gamma-well counting, FIG. 2): significantly higher; Quantification of planar images, compared with other evaluated tracers ([4]; FIG. 7): superiority
HGRENLRIALRY [B2702-p, parent tracer, reference compound]				bind specifically	high circulating blood activity precluded the non invasive imaging	

More lines, main results first:

Left-to-right carotid artery activity ratio compared with EP43 [3]	Left carotid-to-blood activity ratio compared with EP43 [3]	Left-to-right carotid activity ratio from quantified planar images compared to EP43 [4]	Sequence	Binding to VCAM-1 (VCAM-1)	Non invasive imaging of tracer uptake in the carotid atherosclerotic lesion [4]	further results
did not display improved	did not display improved	did not display improved	HGRANLRILAAY (also: 99mTc label) [EP52]			
did not display improved	did not display improved	did not display improved	HGRANLRILARA (also: 99mTc label) [EP51]			
